Assay results as given in patent US8153134 (SCHERING, dated 2012).
Residue numbers refer to the chain shown, from its start. Read-outs that look alike come from different tables or passages of the source.

B1: DX239 (antibody, V domains shown)
VH: QVQLQQSGAELVRPGTSVKISCKASGYGFNNYWLGWVKQRPGHGLEWIGDIYPGSGNTYYNENFKGRATLTADKSSTTAYMQVSSLTSEDSAVYFCARGKESFAYWGQGTLVTVSA
VL: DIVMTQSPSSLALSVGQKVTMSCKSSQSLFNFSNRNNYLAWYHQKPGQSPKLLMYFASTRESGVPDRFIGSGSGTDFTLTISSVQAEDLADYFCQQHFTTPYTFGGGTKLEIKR
notes: Parental rodent anti-human MDL-1 monoclonal antibody (not the humanized form); VL of the kappa subclass; also called anti-MDL-1 antibody clone DX239; ATCC PTA-9135
B2: DX233 (antibody, V domains shown)
VH: EVQMQQSGAELVKPGASVKLSCTASGFNIKDTYMHWVKQRPEQGLEWIGRIDPANGITKSDPKFQGKATITADTSSNTAYLQLNSLTSEDTAVYSCAPYSGNYVWFPYWGQGTLVTVSA
VL: DIVMTQSHKFMSTSVGDRVNITCKASQDVGTAVAWYQRKPGKSPQVLIYWASTRHTGVPDRFTGSGSGTDFTLTISNVQSEDLADYFCQQYRSYPLTFGAGTKLELKR
notes: Rodent anti-human MDL-1 monoclonal antibody from a hybridoma; VL of the kappa subclass; also called anti-MDL-1 antibody clone DX233
B3: DX230 (antibody, V domains shown)
VH: EVQLVESGGDLVKPGGSLKLSCAASGFAFSNYDMSWVRQTPEKRLEWVAYISGGGGTTYYSDTVKGRFTISRDNAKNTLYLQMSSLKSEDTAMYYCVRHAVYYGKPYWGQGTTLTVSS
VL: DIVLTQSPPSLAVSLGQRATVSCRASESVEHYGTGLMQWYQQKPGQPPRLLIYAASNVESGVPARFSGSGSGTDFSLNIHPVEEDDIAMYFCQQSRKVPWTFGGGTKLEIKR
notes: Rodent anti-human MDL-1 monoclonal antibody from a hybridoma; VL of the kappa subclass; also called anti-MDL-1 antibody clone DX230; ATCC PTA-8373
B4: DX297 (antibody, V domains shown)
VH: B3 VH with A23T, K76R, M93I, V97A, A100P, V101I
VL: B3 VL with P9A, V21I, G35S, S69G, S95N
B5: DX240 (antibody, V domains shown)
VH: QVQLLQSGAELVKPGASVKISCKASGYTFTDHAIHWVKQKPEQGLEWIGYISPGDGDIKYNEKFKDKATLTADKSSSIAYMQLNSLTSEDSAVYFCKNFDYDFIFDFWGQGTTLTVSS
VL: DIVMSQSPSSLAVSAGETVTMSCKSSQSLLNSRARKNYLAWYQQKPGQSPKLLIYWASTRESGVPDRFTGSGSGTDFTLTISSVRAEDLAVYYCKQSYNLYTFGGGTKLEIKR
notes: Rodent anti-human MDL-1 monoclonal antibody from a hybridoma; VL of the kappa subclass; also called anti-MDL-1 antibody clone DX240; ATCC PTA-9136
B6: DX241 (antibody, V domains shown)
VH: DVKLVESGGGLVKLGGSLKLSCAASGFTFSSYYMSWVRQTPDKRLELVAAINSNGGTTYYPDTVKGRFTISRDNAKNTLYLQMSSLKPEDTALFYCVRDGEFGHYFDYWGQGTTLTVSS
VL: SIVMTQTPKFLLVSAGDRVTITCKASQSVNNDVAWYQQKPGQSPKLLIYYASNRYTGVPDRFTGSGYGTDFTFTISTVQAEDLAVYFCQQDYNSPLTFGAGTKLELKR
notes: Rodent anti-human MDL-1 monoclonal antibody from a hybridoma; VL of the kappa subclass; also called anti-MDL-1 antibody clone DX241; ATCC PTA-8374
B7: DX244 (antibody, V domains shown)
VH: QIQLVQSGPELKKPGETVKISCKASGYTFTIYAMNWVKQAPGKGLEWMGWINTDTGEPTYADDFKGRFAFSLETSASTAYLQINNLKNEDMATYFCARSSEVFYDYRFDYWGQGTALTVSS
VL: DIQMTQSPSSLSASLGERVSLTCRASQDIGSSLNWLQQEPDGTIKRLIYATSNLDSGVPKRFSGSRSGSDYSLTISSLESEDFVHYYCLQYASSPFTFGSGTKLEIKR
notes: Parental rodent anti-human MDL-1 monoclonal antibody (not the humanized form); VL of the kappa subclass; also called anti-MDL-1 antibody clone DX244; ATCC PTA-8375
B8: DX246 (antibody, V domains shown)
VH: QVTLKESGPGILKPSQTLSLTCSFSGFSLSTSGMNVGWIRQPSGKGLEWLAHIWWDDDKYYNPSLKSQLTISKDTSRNQVFLKITSVDTADTATYYCARRAFYGSNYDYYAMDYWGQGTSVTVSS
VL: ENVLTQSPAIMSASPGEKVTMTCSVSSSVSYIHWYQQKSSTSPKLWIYDTSKLASGVPGRFSGSGSGNSYSLTISSMEAEDVATYYCFQGSGYPLTFGAGTKLELKR
notes: Rodent anti-human MDL-1 monoclonal antibody from a hybridoma; VL of the kappa subclass; also called anti-MDL-1 antibody clone DX246; ATCC PTA-8376

Legend:
human MDL-1 [1] = biological target: T1, human MDL-1 (human, UniProt Q9NY25 1-188); experiment: cell-based or functional assay
T1 sequence: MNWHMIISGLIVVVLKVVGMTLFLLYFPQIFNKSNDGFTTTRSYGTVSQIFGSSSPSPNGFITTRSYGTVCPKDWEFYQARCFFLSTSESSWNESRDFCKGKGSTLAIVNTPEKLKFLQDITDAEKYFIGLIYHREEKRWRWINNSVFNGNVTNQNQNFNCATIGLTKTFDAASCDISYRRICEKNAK

human MDL-1 [2] = biological target: T1, human MDL-1; experiment: cell-based or functional assay; remark: listed apart in the source
human MDL-1 [3] = biological target: T1, human MDL-1; experiment: cell-based or functional assay; remark: listed apart in the source
hMDL-1-hIG [4] = biological target: T2, hMDL-1-hIG (human, UniProt Q9NY25 28-188); experiment: BIAcore SPR; mAb as capture reagent, hMDL-1-hIG as analyte
T2 construct: Fusion of human MDL-1 with human Ig used in the BIAcore assay; MDL-1 is a type II membrane protein, so the Ig part may stand N-terminal; also called MDL-1-hIg ligand; not shown: human Ig part (hIG)
T2 sequence: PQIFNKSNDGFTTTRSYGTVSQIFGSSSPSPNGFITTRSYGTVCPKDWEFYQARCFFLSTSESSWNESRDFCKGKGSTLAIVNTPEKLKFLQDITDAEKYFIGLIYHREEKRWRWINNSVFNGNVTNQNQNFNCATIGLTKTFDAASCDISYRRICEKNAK
Method: (§1) Determining the Equilibrium Dissociation Constant (K_d) for Humanized Anti-Human MDL-1 Antibodies Using BIAcore Technology BIAcore determinations are performed essentially as described at Example 4 of co-pending, commonly assigned U.S. patent application Ser. No. 11/511,635 (filed 29 Aug. 2006). Briefly, ligands (anti-MDL-1-hIg) are immobilized on a BIAcore CM5 sensor chip using standard amine-coupling procedure. Kinetic constants for the various interactions are determined using BIAevaluation software 3.1. The K_d is determined using the calculated dissociation and association rate constants.
(§2) For antibodies DX233, DX239, and DX240, the antibodies were used as the capture reagent and the MDL-1-hIg ligand was used as the analyte. Affinity measurements for DX233, DX239, and DX240 were as follows.

hMDL-1-hIG [5] = biological target: T2, hMDL-1-hIG; experiment: BIAcore SPR; mAb as capture reagent, hMDL-1-hIG as analyte; apparent Kd
Method: as §1, §2

human MDL-1 [6] = biological target: T1, human MDL-1; experiment: cell-based or functional assay; remark: listed apart in the source
hMDL-1-hIG [7] = biological target: T2, hMDL-1-hIG; experiment: BIAcore SPR; hMDL-1-hIG as capture antigen on the chip, mAb as analyte
Method: as §1

hMDL-1-hIG [8] = biological target: T2, hMDL-1-hIG; experiment: BIAcore SPR; hMDL-1-hIG as capture antigen on the chip, mAb as analyte; apparent Kd
Method: as §1

Binder	secreted beta-hexosaminidase, OD (405-570), DT808 mouse mast cells, cross-link (human MDL-1 [1])	secreted beta-hexosaminidase, OD (405-570), DT808 mouse mast cells, no cross-link (human MDL-1 [1])	increase in CD11b surface expression on human neutrophils, Mean Fluorescent Intensity as compared to isotype control treatment (human MDL-1 [2]) [MFI]	increase in CD66b surface expression on human neutrophils, Mean Fluorescent Intensity as compared to isotype control treatment (human MDL-1 [2]) [MFI]	decrease of CD62L staining (MFI) of human neutrophils, isotype control treatment minus anti-hMDL-1 treatment (human MDL-1 [3]) [MFI]	koff (hMDL-1-hIG [4]) [s⁻¹]	kon (hMDL-1-hIG [4]) [M⁻¹ s⁻¹]	Kd (hMDL-1-hIG [5]) [nM]	secreted beta-hexosaminidase, OD (405-570), DT808 mouse mast cells, cross-link (human MDL-1 [6])	secreted beta-hexosaminidase, OD (405-570), DT808 mouse mast cells, no cross-link (human MDL-1 [6])	koff (hMDL-1-hIG [7]) [s⁻¹]	kon (hMDL-1-hIG [7]) [M⁻¹ s⁻¹]	Kd (hMDL-1-hIG [8]) [nM]
B1	3.14 OD (405-570)	1 OD (405-570)	377	107	142	0.000336	10000	37.9	–	–	–	–	–
B2	3.21 OD (405-570)	1.22 OD (405-570)	303	90.5	96.9	0.000147	20000	8.65	–	–	–	–	–
B3	–	–	–	–	–	–	–	–	3.17 OD (405-570)	3.32 OD (405-570)	0.0016	63000	25.2
B4	–	–	–	–	–	–	–	–	3.28 OD (405-570)	3.17 OD (405-570)	–	–	–
B5	3.25 OD (405-570)	1.83 OD (405-570)	336	97	114	0.000325	8000	43	–	–	–	–	–
B6	–	–	–	–	–	–	–	–	3.25 OD (405-570)	2.66 OD (405-570)	7.3e-05	354000	0.207
B7	–	–	349	110	140	–	–	–	3.36 OD (405-570)	3.46 OD (405-570)	6.8e-05	277000	0.247
B8	–	–	393	109	152	–	–	–	3.23 OD (405-570)	3.39 OD (405-570)	0.000817	644000	1.27
